T1: recombinant IL13Rα1 (Sino biological) (UniProt P78552 22-343, limits assumed)
T1 construct: Bought protein; construct not described
T1 sequence (looked up): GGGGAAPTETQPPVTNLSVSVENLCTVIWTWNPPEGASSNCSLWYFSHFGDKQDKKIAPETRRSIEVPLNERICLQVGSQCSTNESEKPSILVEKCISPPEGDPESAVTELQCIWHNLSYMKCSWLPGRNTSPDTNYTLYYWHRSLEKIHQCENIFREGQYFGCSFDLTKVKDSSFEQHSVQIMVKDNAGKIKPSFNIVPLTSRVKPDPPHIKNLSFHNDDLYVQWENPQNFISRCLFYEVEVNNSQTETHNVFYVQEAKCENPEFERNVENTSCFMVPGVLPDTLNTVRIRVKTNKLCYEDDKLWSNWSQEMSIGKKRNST

T2: IL13Rα2 expressed on tumor cells (U87, U373, U251) (UniProt Q14627 27-380, limits assumed)
T2 sequence (looked up): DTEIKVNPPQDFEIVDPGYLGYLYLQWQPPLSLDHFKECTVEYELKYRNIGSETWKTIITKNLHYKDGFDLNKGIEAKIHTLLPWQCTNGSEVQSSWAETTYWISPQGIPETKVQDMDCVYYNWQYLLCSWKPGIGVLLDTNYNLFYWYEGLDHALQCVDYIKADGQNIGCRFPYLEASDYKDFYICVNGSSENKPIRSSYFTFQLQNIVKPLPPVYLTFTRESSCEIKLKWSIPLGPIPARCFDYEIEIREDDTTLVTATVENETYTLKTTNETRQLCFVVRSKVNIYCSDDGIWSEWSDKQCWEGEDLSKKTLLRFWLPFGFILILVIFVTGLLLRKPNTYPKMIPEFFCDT

T3: recombinant IL13Rα2 (Sino biological) (UniProt Q14627 27-343, limits assumed)
T3 construct: Bought protein; construct not described
T3 sequence (looked up): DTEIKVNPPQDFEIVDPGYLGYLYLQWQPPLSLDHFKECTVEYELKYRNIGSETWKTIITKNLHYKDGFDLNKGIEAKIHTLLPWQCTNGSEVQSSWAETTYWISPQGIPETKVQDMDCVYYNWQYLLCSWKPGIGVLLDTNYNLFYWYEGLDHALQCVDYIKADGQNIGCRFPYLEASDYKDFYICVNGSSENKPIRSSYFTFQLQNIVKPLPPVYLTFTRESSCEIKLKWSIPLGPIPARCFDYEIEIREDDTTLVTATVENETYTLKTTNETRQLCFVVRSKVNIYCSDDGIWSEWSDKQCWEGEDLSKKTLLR

T4: IL13Rα1 expressed on tumor cells (UniProt P78552 22-427, limits assumed)
T4 construct: whole, on cells
T4 sequence (looked up): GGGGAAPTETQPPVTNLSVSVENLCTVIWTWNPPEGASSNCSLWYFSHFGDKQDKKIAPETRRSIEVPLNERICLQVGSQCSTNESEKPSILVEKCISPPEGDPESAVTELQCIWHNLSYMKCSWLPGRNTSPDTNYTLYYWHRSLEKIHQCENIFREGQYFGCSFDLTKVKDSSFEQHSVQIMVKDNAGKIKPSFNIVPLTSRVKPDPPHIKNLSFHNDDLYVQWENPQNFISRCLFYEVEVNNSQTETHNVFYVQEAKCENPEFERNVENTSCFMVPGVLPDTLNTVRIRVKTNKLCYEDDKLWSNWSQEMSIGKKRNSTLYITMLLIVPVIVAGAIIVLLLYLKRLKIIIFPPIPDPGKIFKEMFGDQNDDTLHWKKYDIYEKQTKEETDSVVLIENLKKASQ

T5: recombinant CD3 protein (Acrobiosystems) (UniProt P07766 23-126)
T5 chain: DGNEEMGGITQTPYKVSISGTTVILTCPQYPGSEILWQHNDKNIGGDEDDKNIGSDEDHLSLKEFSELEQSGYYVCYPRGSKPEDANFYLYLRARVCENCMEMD

T6: recombinant IL13Rα2 (Sino biological) (UniProt Q14627 27-343)
T6 chain: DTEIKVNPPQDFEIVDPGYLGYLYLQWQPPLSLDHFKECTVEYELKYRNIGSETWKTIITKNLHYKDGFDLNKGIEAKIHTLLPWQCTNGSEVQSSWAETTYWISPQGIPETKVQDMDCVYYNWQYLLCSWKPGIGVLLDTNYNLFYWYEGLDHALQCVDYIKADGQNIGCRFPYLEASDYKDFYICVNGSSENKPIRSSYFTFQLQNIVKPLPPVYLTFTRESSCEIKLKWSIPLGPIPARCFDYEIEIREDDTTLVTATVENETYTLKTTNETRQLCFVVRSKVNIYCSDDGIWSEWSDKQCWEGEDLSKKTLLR

B1: PB02-forward (bispecific antibody)
chain: DIQMTQSPSSLSASVGDRVTITCKASQDVGTAVAWYQQKPGKAPKLLIYSASYRSTGVPSRFSGSGSGTDFTLTISSLQPEDFATYYCQHHYSAPWTFGGGTKVEIKGGGGSGGGGSGGGGSEVQLVESGGGLVQPGGSLRLSCAASGFTFSRNGMSWVRQAPGKGLEWVATVSSGGSYIYYADSVKGRFTISRDNAKNSLYLQMNSLRAEDTAVYYCARQGTTALATRFFDVWGQGTLVTVSSGGGGSEVQLVESGGGLVQPGGSLRLSCAASGYSFTGYTMNWVRQAPGKGLEWVALINPYKGVSTYNQKFKDRFTISVDKSKNTAYLQMNSLRAEDTAVYYCARSGYYGDSDWYFDVWGQGTLVTVSSGGGGSGGGGSGGGGSDIQMTQSPSSLSASVGDRVTITCRASQDIRNYLNWYQQKPGKAPKLLIYYTSRLESGVPSRFSGSGSGTDYTLTISSLQPEDFATYYCQQGNTLPWTFGQGTKVEIKS
notes: Single-chain bispecific T cell engager, VL-VH-VH-VL format: second humanized anti-IL13Rα2 clone fused by GS linker to a modified UCHT1 anti-CD3 scFv; Tested as Expi293F supernatant and as a recombinant purified version; also called PB08-2134
B2: PB01-reverse (bispecific antibody)
chain: EVQLVESGGGLVQPGGSLRLSCAASGFSLTKYGVHWVRQAPGKGLEWVGVKWAGGSTDYNSALMSRFTISKDNAKNSLYLQMNSLRAEDTAVYYCARDHRDAMDYWGQGTLVTVSSGGGGSGGGGSGGGGSDIQMTQSPSSLSASVGDRVTITCTASLSVSSTYLHWYQQKPGSSPKLWIYSTSNLASGVPSRFSGSGSGTSYTLTISSLQPEDFATYYCHQYHRSPLTFGGGTKVEIKGGGGSDIQMTQSPSSLSASVGDRVTITCRASQDIRNYLNWYQQKPGKAPKLLIYYTSRLESGVPSRFSGSGSGTDYTLTISSLQPEDFATYYCQQGNTLPWTFGQGTKVEIKSGGGGSGGGGSGGGGSEVQLVESGGGLVQPGGSLRLSCAASGYSFTGYTMNWVRQAPGKGLEWVALINPYKGVSTYNQKFKDRFTISVDKSKNTAYLQMNSLRAEDTAVYYCARSGYYGDSDWYFDVWGQGTLVTVSS
B3: PB02-reverse (bispecific antibody)
chain: EVQLVESGGGLVQPGGSLRLSCAASGFTFSRNGMSWVRQAPGKGLEWVATVSSGGSYIYYADSVKGRFTISRDNAKNSLYLQMNSLRAEDTAVYYCARQGTTALATRFFDVWGQGTLVTVSSGGGGSGGGGSGGGGSDIQMTQSPSSLSASVGDRVTITCKASQDVGTAVAWYQQKPGKAPKLLIYSASYRSTGVPSRFSGSGSGTDFTLTISSLQPEDFATYYCQHHYSAPWTFGGGTKVEIKGGGGSDIQMTQSPSSLSASVGDRVTITCRASQDIRNYLNWYQQKPGKAPKLLIYYTSRLESGVPSRFSGSGSGTDYTLTISSLQPEDFATYYCQQGNTLPWTFGQGTKVEIKSGGGGSGGGGSGGGGSEVQLVESGGGLVQPGGSLRLSCAASGYSFTGYTMNWVRQAPGKGLEWVALINPYKGVSTYNQKFKDRFTISVDKSKNTAYLQMNSLRAEDTAVYYCARSGYYGDSDWYFDVWGQGTLVTVSS
notes: Single-chain bispecific T cell engager, VH-VL-VL-VH format: second humanized anti-IL13Rα2 clone fused by GS linker to a modified UCHT1 anti-CD3 scFv; Tested as Expi293F supernatant and as a recombinant purified version; also called PB08-1243
B4: PB01-forward (bispecific antibody)
chain: DIQMTQSPSSLSASVGDRVTITCTASLSVSSTYLHWYQQKPGSSPKLWIYSTSNLASGVPSRFSGSGSGTSYTLTISSLQPEDFATYYCHQYHRSPLTFGGGTKVEIKGGGGSGGGGSGGGGSEVQLVESGGGLVQPGGSLRLSCAASGFSLTKYGVHWVRQAPGKGLEWVGVKWAGGSTDYNSALMSRFTISKDNAKNSLYLQMNSLRAEDTAVYYCARDHRDAMDYWGQGTLVTVSSGGGGSEVQLVESGGGLVQPGGSLRLSCAASGYSFTGYTMNWVRQAPGKGLEWVALINPYKGVSTYNQKFKDRFTISVDKSKNTAYLQMNSLRAEDTAVYYCARSGYYGDSDWYFDVWGQGTLVTVSSGGGGSGGGGSGGGGSDIQMTQSPSSLSASVGDRVTITCRASQDIRNYLNWYQQKPGKAPKLLIYYTSRLESGVPSRFSGSGSGTDYTLTISSLQPEDFATYYCQQGNTLPWTFGQGTKVEIKS
notes: Single-chain bispecific T cell engager, VL-VH-VH-VL format: humanized anti-IL13Rα2 scFv fused by GS linker to a modified UCHT1 anti-CD3 scFv; Tested as Expi293F transfection supernatant and as a recombinant purified version, detected with anti-His tag antibody; also called PB07-2134

How the values were obtained:
[1] = target: T1, recombinant IL13Rα1 (Sino biological); assay: binding ELISA, plate coated with IL13Rα1, Expi293F supernatant
Procedure: (§1) ELISA plates were coated with either IL13Rα2/IL13Rα1 (Sino biological, […]) or CD3 (Acrobiosystems, 1 μg/ml) overnight at 4C. Blocking was performed with PBST-10% FBS for 1 hour. As primary antibody, supernatants from Expi293F cells transfected with dBTEs was used or pVax as negative control at different dilutions. The cells were incubated at room temperature for 1 hour. Secondary antibody was a goat anti-human fab fragment specific HRP conjugated (Jackson immunoresearch). After 1 hour incubation the blots were developed with TMB solution and read OD at 450 nm. To determine binding kinetics, recombinant BTEs were used at indicated concentrations as primary antibody, and HRP conjugated anti-His tag antibody (Biolegend) or goat anti-mouse fab fragment specific antibody as secondary antibody.

[2] = target: T2, IL13Rα2 expressed on tumor cells (U87, …); assay: cell-based or functional assay
[3] = target: T3, recombinant IL13Rα2 (Sino biological); assay: binding ELISA, recombinant purified BTE on coated recombinant IL13Rα2
Procedure: as §1

[4] = target: T4, IL13Rα1 expressed on tumor cells; assay: binding to tumor cells (method not given)
[5] = target: T5, recombinant CD3 protein (Acrobiosystems); assay: ELISA
[6] = target: T6, recombinant IL13Rα2 (Sino biological); assay: ELISA

Binder | binding result [1] | EC50 of killing of U87-GFP-Luc cells, 48h luciferase killing assay with recombinant BTE and primary human T cells [2] | IC50 [3] | binding result [4] | IC50 [5] | IC50 [6]
B1 | no binding | ~0.1 ng/mL | 4.2 ng/mL | no binding | 11.2 ng/mL | –
B2 | – | ~0.1 ng/mL | – | – | – | –
B3 | no binding | ~0.1 ng/mL | – | no binding | 0.41 ng/mL | 9.3 ng/mL
B4 | – | ~0.1 ng/mL | 21.2 ng/mL | – | – | –
